In test [1] the target is type IF CRISPR RNA guided surveillance complex (Csy) (UniProt Q02MM2). The test can be described thus: differential scanning fluorimetry; purified Csy (0.323 uM) or AcrIF2-bound Csy (0.475 uM) in 100 mM citrate phosphate buffer pH 7.5 with SYPRO orange; 25°C to 95°C at 1°C/min; maximum intensity of each curve compared. Background: Differential scanning fluorimetry follows unfolding on heating by fluorescence.

The target is the same in test [2]. The test can be described thus: ITC; AcrIF9 or AcrIF2 binding to the Csy complex; conditions not told in the text shown (Supplemental Figure S8).

AcrIF2 (natural protein), sequence (Q6TM72 whole entry): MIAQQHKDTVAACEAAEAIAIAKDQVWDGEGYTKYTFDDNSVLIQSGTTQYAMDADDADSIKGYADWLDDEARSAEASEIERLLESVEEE

AcrIF2 (natural protein) showed an increase in temperature at the maximum DSF intensity compared to unbound Csy in test [1] of 3 °C. Moreover, the dH in test [2] was less than 0.

Source of the values: PMC9638894.
